The text below walks through data of patent US20130202594A1, “ALK1 Antagonists and Their Uses in Treating Renal Cell Carcinoma” (priority 2012, published 2013).

Entries after “also recorded” stand apart in the source; their conditions may differ.

One data set relates to advanced RCC. The conditions noted are these: cited from earlier work.
Data set [1] has as its system collagen-induced arthritis. Put plainly: Murine collagen-induced arthritis (CIA) model of rheumatoid arthritis. The class given is in vivo, mouse. The conditions noted are these: bevacizumab treated mice; day 42. The procedure: RAP-041 is mALK1-Fc. Avastin™ is the anti-VEGF antibody bevacizumab.
The murine collagen-induced arthritis model is a well-accepted model of rheumatoid arthritis. […] Nonetheless, a dose-related trend is apparent.
By study termination at day 42 the incidence of arthritis had reached 10/10 in the vehicle control treated mice, 9/10 in the bevacizumab treated mice, 8/10 in the mALK1-Fc at 1 mg/kg treated group and 9/10 in the mALK1-Fc 10 mg/kg treated group. In the mALK1-Fc 25 mg/kg treated group disease incidence was lower at 6/10.

The subject of data set [2] is angiogenesis in chick chorioallantoic membrane. Put plainly: CAM (chick chorioallantoic membrane) angiogenesis assay. The class given is in vivo. The source says: In preferred embodiments, an ALK1 ECD polypeptide binds to one or more of GDF5, GDF6, GDF7, BMP9 and BMP10. […] Binding may be assessed using purified proteins in solution or in a surface plasmon resonance system, such as a Biacore™ system. […] Bioassays for angiogenesis inhibitory activity include the chick chorioallantoic membrane (CAM) assay, the mouse corneal micropocket assay, or an assay known in the art for measuring the effect of administering isolated or synthesized proteins on implanted tumors. The CAM assay is described by O'Reilly, et al., in “Angiogenic Regulation of Metastatic Growth” Cell, 1994; 79 (2):315-328. Briefly, 3 day old chicken embryos with intact yolks are separated from the egg and placed in a petri dish. After 3 days of incubation, a methylcellulose disc containing the protein to be tested is applied to the CAM of individual embryos. After 48 hours of incubation, the embryos and CAMs are observed to determine whether endothelial growth has been inhibited. The mouse corneal micropocket assay involves implanting a growth factor-containing pellet, along with another pellet containing the suspected endothelial growth inhibitor, in the cornea of a mouse and observing the pattern of capillaries that are elaborated in the cornea. Other assays are described in the Examples.
VEGF and FGF are well-known to stimulate angiogenesis. A CAM (chick chorioallantoic membrane) assay system was used to assess the angiogenic effects of GDF7.
ALK1-Fc fusions were tested for anti-angiogenic activity in the CAM assay.
ALK1-Fc proteins and a commercially available, anti-angiogenic anti-VEGF monoclonal antibody were compared in the CAM assay. The ALK1-Fc proteins had similar potency as compared to anti-VEGF. The anti-VEGF antibody bevacizumab is currently used in the treatment of cancer and macular degeneration in humans.

Data set [3] has the same test system. Put plainly: CAM assay of BMP9 and anti-BMP9 with or without VEGF. Format: in vivo. The settings on record: for effect on angiogenesis in the presence of VEGF: VEGF-mediated angiogenesis. An excerpt:
A CAM (chick chorioallantoic membrane) assay system was used to assess the angiogenic effects of recombinant human BMP9 (rhB9) and anti-BMP9 monoclonal antibody (mabB9) (R&D Systems, Minneapolis, Minn., Cat. No. MAB3209). This antibody is known to neutralize BMP9/ALK1 signaling. See, e.g., Scharpfenecker et al., J Cell Sci. 2007 Mar. 15; 120(Pt 6):964-72; David et al., (2007); Blood March 1; 109(5):1953-61; David et al., Circ. Res. 2008 Apr. 25; 102(8):914-22.
In the absence of VEGF, both proteins were used at the 50 ng dosed 1×/day on days 1 and 3 in the 5-day cycle. […] However, the effects of the anti-BMP9 antibody are in remarkable contrast to the published literature.

On to interferon-alpha, for which the overall survival with advanced RCC (patients with advanced disease) is on record as 21.8 months.

As for `CCN(CC)CCNC(=O)c1c(C)[nH]c(/C=C2\C(=O)Nc3ccc(F)cc32)c1C` [sunitinib], the “patients requiring dose reductions” value in the data set with advanced RCC (RCC patients, to manage toxicities) is recorded as 50%.

As to bevacizumab, in data set [1], the incidence of arthritis was 9/10.

In the case of PDGF, in data set [2], the “angiogenic effect (stimulation of angiogenesis)” value (from here on “angiogenic effect”) is on record as “relatively poor capability to induce angiogenesis”.

B1: GDF7: growth differentiation factor, ALK1 ligand tested in CAM assay (protein)
chain: TALAGTRTAQGSGGGAGRGHGRRGRSRCSRKPLHVDFKELGWDDWIIAPLDYEAYHCEGLCDFPLRSHLEPTNHAIIQTLLNSMAPDAAPASCCVPARLSPISILYIDAANNVVYKQYEDMVVEACGCR
On to B1, for which, in data set [2], the “angiogenic effect” value is listed as “stimulates angiogenesis with a potency that is similar to that of VEGF; also recorded: comparable to that of VEGF”.

B2: rhB9: recombinant human BMP9 (protein)
chain: SAGAGSHCQKTSLRVNFEDIGWDSWIIAPKEYEAYECKGGCFFPLADDVTPTKHAIVQTLVHLKFPTKVGKACCVPTKLSPISVLYKDDMGVPTLKYHYEGMSVAECGCR
As to B2, the “effect on angiogenesis in the absence of exogenous VEGF” value in data set [3] (50 ng 1×/day on days 1 and 3) is “Neither BMP9 nor anti-BMP9 had a substantial effect on angiogenesis”. In addition, the “effect on angiogenesis in the presence of VEGF” value was “inhibit VEGF-mediated angiogenesis” in data set [3] and “substantial anti-angiogenic effect” in data set [3] (listed as BMP9). For the same molecule, the “angiogenic effect” value in data set [2] is listed as “relatively poor capability to induce angiogenesis”.
